Test results reported in patent US20110275122A1 (Amgen, published 2011).

T1: c-mpl receptor (Homo sapiens (Human), UniProt P40238 26-491, The MPL used for panning was biotinylated; the biotin site is not stated and is not carried by the letters.)
T1 construct: also called TPO receptor
T1 sequence: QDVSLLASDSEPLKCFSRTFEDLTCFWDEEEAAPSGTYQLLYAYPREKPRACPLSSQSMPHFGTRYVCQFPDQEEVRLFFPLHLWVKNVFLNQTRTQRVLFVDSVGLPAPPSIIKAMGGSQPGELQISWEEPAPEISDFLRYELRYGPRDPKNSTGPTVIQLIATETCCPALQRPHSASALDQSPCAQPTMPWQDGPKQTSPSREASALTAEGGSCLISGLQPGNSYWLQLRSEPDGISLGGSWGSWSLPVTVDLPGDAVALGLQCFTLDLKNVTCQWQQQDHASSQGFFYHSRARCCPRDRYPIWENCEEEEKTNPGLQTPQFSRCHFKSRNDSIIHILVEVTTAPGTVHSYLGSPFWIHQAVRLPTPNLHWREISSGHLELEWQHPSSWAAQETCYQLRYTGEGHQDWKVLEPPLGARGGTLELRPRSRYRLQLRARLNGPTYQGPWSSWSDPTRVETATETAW

B1: SEQ ID NO: 246 (peptide)
peptide: IEGQSWEFENDRVPAHSLERVLLLRRVPTEPSGPSICAQIEGPTFKQWQECINGHS
B2: SEQ ID NO: 249 (peptide)
peptide: IEGEPVSDGKRRPRVHSLERVDAVHAKVGPSICAQIEGPTFKQWQKCKRAHS
B3: SEQ ID NO: 250 (peptide)
peptide: IEGRWPPPQFPVTQQHSLERVGRPPPSVELPRPTFVCAQIEGPTFKQWQRCLREHS
B4: SEQ ID NO: 254 (peptide)
peptide: IEGRWPPPQFPVTEHHSLERVGRRPPNAQMPQSIFICGQNEGPTFQYCQRCLREHS
B5: SEQ ID NO: 257 (peptide)
peptide: IEGYVGGPYEQTNSLERVPPTLAWKYGPRTPSICAQIEGPTFKQWQQCLSDHS
B6: SEQ ID NO: 284 (peptide)
peptide: IEGHGSQKPTAARALESTSSLTTRTRTTSICAQQDMVGPTIRQWLAARACI

Each binder was assayed against T1, c-mpl receptor (assay: phage-ELISA).
For IEGPTLRQRLAARA [SEQ ID NO: 299], the Relative activity was 57.3. For IEGPTLRQWLAARA (Positive control of the phage-ELISA) [IEGPTLRQWLAARA (positive control)], the Relative activity was 150. B1 was tested, and the Relative activity was 173. With IEGPTFKQWQKCRNMHS [SEQ ID NO: 247] the Relative activity was 164. Binder IEGPTFKQWQKLRRVHS [SEQ ID NO: 248] has a Relative activity of 155. IEGPTFKQWQKLRRSHS [SEQ ID NO: 261] showed a Relative activity of 125. B2 was tested, and the Relative activity was 150. In the case of B3, the Relative activity is reported as 149. For IEGPTFKQWQRWRLLHS [SEQ ID NO: 251], the Relative activity was 149. IEGPTFKQWQAWRKKHS [SEQ ID NO: 252] gave a Relative activity of 146. IEGPTFKQWQRWRKMHS [SEQ ID NO: 253] showed a Relative activity of 144. For B4, the Relative activity was 137. IEGWWWQFYFHAKEDHS [SEQ ID NO: 255] gave a Relative activity of 136. For IEGWWWQFYFHPKEDHS [SEQ ID NO: 262], the Relative activity was 124. PSICAQIEGPTFKQWQTCMRAHS [SEQ ID NO: 256] was tested, and the Relative activity was 133. Binder B5 has a Relative activity of 131. Work on IEGPTFKQWQGRSKRHS [SEQ ID NO: 258] yielded a Relative activity of 131. Work on IEGWPWQLYVHPEGEHS [SEQ ID NO: 259] yielded a Relative activity of 129. IEGWWWQLYFHAKDDHS [SEQ ID NO: 260] gave a Relative activity of 126. IEGPTFKQWQKSRTKHS [SEQ ID NO: 263] was tested, and the Relative activity was 124. With IEGWTWQFYVHPKGDHS [SEQ ID NO: 264] the Relative activity was 122. IEGPTFKQWQAARMHHS [SEQ ID NO: 265] showed a Relative activity of 122. Binder IEGPTFKQWQACLHSHS [SEQ ID NO: 266] has a Relative activity of 114. Work on IEGPSFTPWFHERRSHS [SEQ ID NO: 268] yielded a Relative activity of 110. In the case of IEGPTFKQWQWLRRHHS [SEQ ID NO: 269], the Relative activity is reported as 109. With IEGPTFKQWQMLRRHHS [SEQ ID NO: 328] the Relative activity was 12.5. For IEGWWWQFYVHAKGDHS [SEQ ID NO: 270], the Relative activity was 109. Binder IEGPTFKQWQVWRNRHS [SEQ ID NO: 271] has a Relative activity of 108. Work on IEGQSWLRRLHWKEEHS [SEQ ID NO: 272] yielded a Relative activity of 108. IEGPTFKQWQKWRKTHS [SEQ ID NO: 274] gave a Relative activity of 105. In the case of IEGPTFKQWQYWRAKHS [SEQ ID NO: 275], the Relative activity is reported as 105. IEGPTFKQWQVRQKTHS [SEQ ID NO: 276] was tested, and the Relative activity was 105. IEGWSWQFYFHAKGDHS [SEQ ID NO: 277] was tested, and the Relative activity was 104. In the case of IEGRTWQLYFHAKEEHS [SEQ ID NO: 278], the Relative activity is reported as 102. IEGWPRQLYAHAKEDHS [SEQ ID NO: 280] was tested, and the Relative activity was 95.6. Work on IEGWWWQFYAHPQGDHS [SEQ ID NO: 281] yielded a Relative activity of 95. IEGWPWQFYAHPQGDHS [SEQ ID NO: 289] gave a Relative activity of 80.3. With IEGWSWQFYAHPKGDHS [SEQ ID NO: 300] the Relative activity was 52.6. Binder IEGWTWQFYAHPQGDHS [SEQ ID NO: 317] has a Relative activity of 24.2. Binder B6 has a Relative activity of 92.1. IEGPTFEQWQHWRRGHS [SEQ ID NO: 285] was tested, and the Relative activity was 91.5. With IEGWIWRQWLAARA [SEQ ID NO: 286] the Relative activity was 91.4. IEGWIWRPWLAARA [SEQ ID NO: 287] gave a Relative activity of 83.3. With IEGWVWCQWLAARA [SEQ ID NO: 290] the Relative activity was 79.1. Binder IEGWVWWPWLAARA [SEQ ID NO: 296] has a Relative activity of 63.5. IEGWVWRQWLAARA [SEQ ID NO: 301] gave a Relative activity of 52.1. IEGYWWYASWAARA [SEQ ID NO: 288] showed a Relative activity of 80.4. In the case of IEGPTLHEWLRWLRQHS [SEQ ID NO: 291], the Relative activity is reported as 78.3.
